Source: US20140141019A1

How the values were obtained:
Assay in all cases: SPOT alanine scanning, spot intensity
[1] = molecular target: HER3 peptide 342-356 … with Asp352 replaced by alanine (human)
[2] = molecular target: HER3 peptide 344-358 … with Asp352 replaced by alanine (human)
[3] = molecular target: alanine analogs at Pro353 and Ile357 of the HER3 pentadecapeptides 342-356, 343-357 and 344-358
[4] = molecular target: HER3 peptide 343-357 … with Asp352 replaced by alanine (human)

B1: mAb H4B-121 (purified human IgG) (antibody, V domains shown)
VH: EVQLVESGGGLVQPGRSLRLSCAASGFTFDDYAMHWVRQAPGKGLEWVSGISWNSGSIGYADSVKGRFTISRDNAKNSLYLQMNSLRAEDTAVYYCAREGQWPNYGMDVWGQGTTVTVSS
VL: QSVLTQPPSVSAAPGQKVTISCPGSSSNIGNNYVSWYQQLPGTAPKLLIYDNNERPSGIPDRFSGSTSGTSATLDITDLQAEDEATYYCGAWDNTLGVYVLGTGTQLTVL
decrease in binding capacity against the unmodified peptide [1]: 92% | decrease in binding capacity against the unmodified peptide [2]: 92% | decrease in antibody reactivity against the unmodified peptide [3]: 40 to 60% | decrease in binding capacity against the unmodified peptide [4]: 92%
